Like-named read-outs stand apart in the source and are kept apart here. Blank lines part the entries; values can stand above or below the binder they belong to. Starred links: 1 amine or outer side, 2 acyl side, 3 side chain; linkers in the order of their positions; H or OH if unused. Positions of bridges follow the written chain, without caps; N, C: chain ends. Non-standard residues stand in square brackets, D forms with d. αMeNva(5-ylidene) = C[C@@](CCC=[*:3])(N[*:1])C(=O)[*:2]; S8 = C=CCCCCCC[C@](C)(N)C(=O)O; SeMet = C[Se]CC[C@H](N)C(=O)O; S5 = C=CCCC[C@](C)(N)C(=O)O; Nle = CCCC[C@H](N)C(=O)O
Legend:
[1] = molecular target: T1, hDcn1^P (potentiating neddylation / PONY domain of human Dcn1, DCUN1D1) (Homo sapiens, UniProt Q96GG9 62-259); assay: ITC, two-site fit, second value
T1 construct: also called DCUN1D1^P; SCCRO PONY domain
T1 sequence (Q96GG9 62-259): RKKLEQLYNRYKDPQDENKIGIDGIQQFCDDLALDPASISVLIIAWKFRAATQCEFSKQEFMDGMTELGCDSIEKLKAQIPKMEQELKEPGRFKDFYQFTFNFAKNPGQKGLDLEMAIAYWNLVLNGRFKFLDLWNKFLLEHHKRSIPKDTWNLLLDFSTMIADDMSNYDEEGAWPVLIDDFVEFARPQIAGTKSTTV
Method: (§1) Protein samples were buffer matched by desalting over a NAP-5 column (GE Healthcare) into 50 mM Hepes, 125 mM NaCl, 1 mM BME, pH 7.0 (ITC buffer). Peptides were dissolved by weight to a final concentration of 10 mM in ITC buffer and diluted further in ITC buffer as required for the experiments. […] The peptide ligands (4 mM) were constantly injected (1.5 μl). The interval time between each injection was 3 minutes and the duration of each injection was 3 seconds. […] Peptide ligands (250 μM) were constantly injected (2.5 μl). The interval time between each injection was three minutes and the duration of each injection was 5 seconds. […] The interval time between each injection was 3 minutes and the duration of each injection was 5 seconds. Obtained spectra were evaluated using Origin (V 7.0) to determine heats of binding and Kd values.

[2] = molecular target: T1, hDcn1^P (potentiating neddylation / …); assay: ITC, two-site fit, first value
Method: as §1

[3] = molecular target: T1, hDcn1^P (potentiating neddylation / …); assay: ITC, peptide titrated into Dcn PONY domain
Method: as §1

[4] = molecular target: T2, hDcn5^P (PONY domain of human DCUN1D5) (Homo sapiens, UniProt Q9BTE7 47-237); assay: ITC, peptide titrated into Dcn PONY domain
T2 sequence: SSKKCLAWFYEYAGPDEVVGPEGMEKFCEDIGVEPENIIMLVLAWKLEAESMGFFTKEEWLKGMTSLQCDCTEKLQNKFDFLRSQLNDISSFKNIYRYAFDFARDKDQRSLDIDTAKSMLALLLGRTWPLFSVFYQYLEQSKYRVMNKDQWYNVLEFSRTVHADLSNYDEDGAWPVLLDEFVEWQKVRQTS
Method: as §1

[5] = molecular target: T3, hDcn3^P (PONY domain of human DCUN1D3) (Homo sapiens, UniProt Q8IWE4 86-304); assay: ITC, peptide titrated into Dcn PONY domain
T3 sequence: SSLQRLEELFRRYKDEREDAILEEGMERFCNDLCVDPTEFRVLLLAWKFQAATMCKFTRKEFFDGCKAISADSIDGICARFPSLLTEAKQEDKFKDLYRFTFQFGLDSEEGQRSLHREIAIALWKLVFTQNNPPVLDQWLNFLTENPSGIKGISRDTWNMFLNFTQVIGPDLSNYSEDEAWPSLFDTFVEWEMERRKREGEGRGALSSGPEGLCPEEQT
Method: as §1

[6] = molecular target: T4, hDcn1^P (PONY domain of human Dcn1 / DCUN1D1 / SCCRO, residues 62 to 259) (Homo sapiens, UniProt Q96GG9 62-259); assay: ITC, peptide titrated into hDcn1^P
T4 construct: NEDD8 co-E3; Expressed as a GST fusion in E. coli; GST was removed with TEV protease; also called DCUN1D1^P
T4 sequence (Q96GG9 62-259): as the sequence (Q96GG9 62-259) above
Method: (§2) Specifically, Phe5 and Gln9 were replaced with (S)-2-(4′-pentenyl) alanine and these side-chains were covalently linked to test the effect of “stapling” an acetylated Ubc12 peptide into a helix (Bird et al. (2008) Methods Enzymol 446:369-386).
as §1

[7] = molecular target: T5, hE1 for Nedd8 (APPBP1-UBA3, NAE1-UBA3) (Homo sapiens, UniProt Q13564 18-534; Q8TBC4 22-463, limits assumed); assay: ITC, peptide titrated into hE1
T5 construct: Heterodimeric E1 expressed in E. coli as described in earlier publications
T5 sequence 1: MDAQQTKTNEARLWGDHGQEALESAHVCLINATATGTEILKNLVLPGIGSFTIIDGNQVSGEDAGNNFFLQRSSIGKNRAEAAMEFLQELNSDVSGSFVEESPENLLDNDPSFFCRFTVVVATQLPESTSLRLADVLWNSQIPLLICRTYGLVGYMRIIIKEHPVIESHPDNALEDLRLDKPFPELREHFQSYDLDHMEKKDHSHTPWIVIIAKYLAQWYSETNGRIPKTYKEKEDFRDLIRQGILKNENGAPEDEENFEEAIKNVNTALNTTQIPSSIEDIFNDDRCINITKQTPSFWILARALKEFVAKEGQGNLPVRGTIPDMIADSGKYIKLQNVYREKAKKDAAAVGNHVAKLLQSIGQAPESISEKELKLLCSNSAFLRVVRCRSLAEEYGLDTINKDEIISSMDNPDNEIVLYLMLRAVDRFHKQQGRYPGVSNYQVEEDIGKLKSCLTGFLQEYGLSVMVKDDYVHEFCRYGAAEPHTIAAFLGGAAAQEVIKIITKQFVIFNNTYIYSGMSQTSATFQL
T5 sequence 2: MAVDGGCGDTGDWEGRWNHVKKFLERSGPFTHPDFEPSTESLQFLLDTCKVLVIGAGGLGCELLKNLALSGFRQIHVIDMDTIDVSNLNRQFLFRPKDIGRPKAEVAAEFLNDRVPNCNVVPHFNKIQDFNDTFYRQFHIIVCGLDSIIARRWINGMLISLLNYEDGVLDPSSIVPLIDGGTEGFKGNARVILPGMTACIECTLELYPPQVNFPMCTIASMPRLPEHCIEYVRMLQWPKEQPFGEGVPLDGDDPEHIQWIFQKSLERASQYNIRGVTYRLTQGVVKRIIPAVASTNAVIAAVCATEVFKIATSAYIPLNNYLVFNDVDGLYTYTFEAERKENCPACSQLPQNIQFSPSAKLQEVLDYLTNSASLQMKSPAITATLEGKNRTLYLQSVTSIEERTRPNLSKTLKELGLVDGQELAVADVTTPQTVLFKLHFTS
Method: as §2, §1

[8] = molecular target: T6, hDcn4^P (PONY domain of human DCUN1D4) (Homo sapiens, UniProt Q92564 102-292); assay: ITC, peptide titrated into Dcn PONY domain
T6 sequence: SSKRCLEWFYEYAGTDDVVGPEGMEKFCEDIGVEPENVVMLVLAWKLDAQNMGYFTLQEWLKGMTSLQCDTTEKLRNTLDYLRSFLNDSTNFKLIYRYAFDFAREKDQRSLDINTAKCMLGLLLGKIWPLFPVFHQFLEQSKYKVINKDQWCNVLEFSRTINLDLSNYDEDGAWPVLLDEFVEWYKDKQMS
Method: as §1

[9] = molecular target: T4, hDcn1^P (PONY domain of human Dcn1 / …); assay: ITC, peptide titrated into hDcn1^P; remark: listed apart in the source
Method: (§3) To gain insights into mechanistic roles of Ubc12 N-terminal acetylation, isothermal titration calorimetry (ITC) was used to quantify interactions with peptides corresponding to the N-termini of yeast or human Ubc12.
as §1

[10] = molecular target: T5, hE1 for Nedd8 (APPBP1-UBA3, NAE1-UBA3); assay: ITC, peptide titrated into hE1; remark: listed apart in the source
Method: as §3, §1

[11] = molecular target: hDcn1^P (PONY domain of human Dcn1 / DCUN1D1 / SCCRO, residues 62 to 259) (Homo sapiens) (UniProt Q96GG9); assay: ITC, peptide titrated into hDcn1^P
hDcn1^P (PONY domain of human Dcn1 / DCUN1D1 / SCCRO, residues 62 to 259) (Homo sapiens), sequence (Q96GG9 62-259): as the sequence (Q96GG9 62-259) above

[12] = molecular target: T7, yE1 for yNedd8 (Ula1-Uba3) (Saccharomyces cerevisiae, UniProt Q12059 1-462, limits assumed); assay: ITC, peptide titrated into yE1
T7 construct: Heterodimeric E1 expressed in E. coli as described in earlier publications
T7 sequence 1: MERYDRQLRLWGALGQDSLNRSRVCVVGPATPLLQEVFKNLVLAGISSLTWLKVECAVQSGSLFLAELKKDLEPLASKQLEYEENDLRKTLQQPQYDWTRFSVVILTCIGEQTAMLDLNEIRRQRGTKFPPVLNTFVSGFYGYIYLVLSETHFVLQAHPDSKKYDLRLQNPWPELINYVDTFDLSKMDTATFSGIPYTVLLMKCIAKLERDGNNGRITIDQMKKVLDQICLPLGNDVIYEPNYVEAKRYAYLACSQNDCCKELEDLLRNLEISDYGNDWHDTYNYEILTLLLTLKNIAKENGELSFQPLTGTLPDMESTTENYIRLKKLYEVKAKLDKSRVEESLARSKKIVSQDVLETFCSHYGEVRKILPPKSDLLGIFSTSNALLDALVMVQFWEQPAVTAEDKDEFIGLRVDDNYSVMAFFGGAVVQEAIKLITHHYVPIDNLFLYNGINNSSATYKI
T7 sequence 2: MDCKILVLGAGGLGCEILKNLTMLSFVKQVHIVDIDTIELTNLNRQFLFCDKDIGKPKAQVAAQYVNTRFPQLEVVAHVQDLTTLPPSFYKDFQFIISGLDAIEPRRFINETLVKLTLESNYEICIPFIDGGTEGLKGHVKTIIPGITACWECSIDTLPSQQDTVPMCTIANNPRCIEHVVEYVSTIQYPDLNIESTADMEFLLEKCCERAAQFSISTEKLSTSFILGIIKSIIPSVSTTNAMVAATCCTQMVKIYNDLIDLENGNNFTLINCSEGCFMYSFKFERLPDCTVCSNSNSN
Method: as §3, §1

[13] = molecular target: yDcn1^P (potentiating neddylation / PONY domain of Saccharomyces cerevisiae Dcn1) (Saccharomyces cerevisiae) (UniProt Q12395); assay: ITC, peptide titrated into yDcn1^P

Binder: Ac-[SeMet]IKLF[S5]LKQ[S5]KK-NH2 (staple 6-10, Stapled synthetic peptide) [hUbc12^Ac1-12 (SeMet) 6, 10]
Kd [1]: 361 nM
Kd [2]: 0.93 nM

B1: hUbc12^Ac1-12 (Met) SS 6, 10 (peptide)
peptide: Ac-MIKLF[S5]LKQ[S5]KK-NH2
modifications: staple 6-10
notes: Stapled synthetic peptide; 'SS' is not explained in the text
Kd [1]: 187 nM
Kd [2]: 1.8 nM

Binder: Ac-MIKLFSLKQQKK-NH2 (also called Acetyl-hUbc12^1-12) [hUbc12^Ac1-12]
Kd [8]: 13100 nM
Kd [5]: 6300 nM

B4: Acetyl-hUbc12^1-12 peptide (peptide)
peptide: Ac-MIKLFSLKQQKK-NH2
notes: Synthetic control peptide for the stapled peptide; also called hUbc12^Ac1-12
ΔH [6]: -4.99 kcal/mol
ΔS [6]: 8.79 cal/mol/deg
Kd [7]: 630 nM
ΔH [7]: -11.5 kcal/mol
ΔS [7]: -11 cal/mol/deg

B5: Acetyl-hUbc12^1-26 peptide (peptide)
peptide: Ac-MIKLFSLKQQKKEEESAGGTKGSSKK-NH2
notes: Synthetic peptide; also called hUbc12^Ac1-26
Kd [9]: 1110 nM
ΔH [9]: -6.11 kcal/mol
ΔS [9]: 5.84 cal/mol/deg
Kd [10]: 943 nM
N (stoichiometry) [10]: 1.14
ΔH [10]: -9.43 kcal/mol
ΔS [10]: -4.79 cal/mol/deg

B7: hUbc12^1-26 peptide (free N-terminus) (peptide)
peptide: H-MIKLFSLKQQKKEEESAGGTKGSSKK-NH2
notes: Synthetic peptide, N-terminal extension of human Ubc12 (UBE2M)
Kd [10]: 585 nM
N (stoichiometry) [10]: 1.29
ΔH [10]: -8.88 kcal/mol
ΔS [10]: -1.99 cal/mol/deg
N (stoichiometry) [11]: 0.75
ΔH [11]: 1.26 kcal/mol
ΔS [11]: 22.2 cal/mol/deg

Continued, values first:

Kd [3]: 120 nM
Kd [4]: 781 nM
Kd [5]: 1520 nM
Binder: Ac-MIKLF[αMeNva(5-ylidene)]LKQ[S8]KK-NH2 (staple 6-10) [hUbc12^Ac1-12 (Met) But:Oct 6, 10]

Kd [1]: 37 nM
Kd [2]: 38 nM
B2: yUbc12^Ac1-12 (Met) 6, 10 (peptide)
peptide: Ac-MLKLR[S5]LQK[S5]KQ-NH2
modifications: staple 6-10
SMILES: CSCC[C@H](NC(C)=O)C(=O)N[C@@H](CC(C)C)C(=O)N[C@@H](CCCCN)C(=O)N[C@@H](CC(C)C)C(=O)N[C@@H](CCCNC(=N)N)C(=O)N[C@@]1(C)CCCC=CCCC[C@@](C)(C(=O)N[C@@H](CCCCN)C(=O)N[C@@H](CCC(N)=O)C(N)=O)NC(=O)[C@H](CCCCN)NC(=O)[C@H](CCC(N)=O)NC(=O)[C@H](CC(C)C)NC1=O
notes: Stapled synthetic peptide; also called Acetyl-yUbc12^1-12(6:10 Staple)

Kd [6]: 150 nM
ΔH [6]: -3.39 kcal/mol
ΔS [6]: 19.3 cal/mol/deg
binding result [7]: no binding
B3: Acetyl-hUbc12^1-12(5:9Staple) peptide (peptide)
peptide: Ac-MIKL[S5]SLK[S5]QKK-NH2
modifications: staple 5-9
notes: Printed as Ac-MIKLXSLKXQKK-NH2, X = 2-(4-pentenyl)alanine; Phe5 and Gln9 are replaced

Kd [1]: 1200 nM
Kd [2]: 800 nM
B6: hUbc12^Ac1-12 (NorLeu) 6, 10 (peptide)
peptide: Ac-[Nle]IKLF[S5]LKQ[S5]KK-NH2
modifications: staple 6-10
SMILES: CCCC[C@H](NC(C)=O)C(=O)N[C@H](C(=O)N[C@@H](CCCCN)C(=O)N[C@@H](CC(C)C)C(=O)N[C@@H](Cc1ccccc1)C(=O)N[C@@]1(C)CCCC=CCCC[C@@](C)(C(=O)N[C@@H](CCCCN)C(=O)N[C@@H](CCCCN)C(N)=O)NC(=O)[C@H](CCC(N)=O)NC(=O)[C@H](CCCCN)NC(=O)[C@H](CC(C)C)NC1=O)[C@@H](C)CC
notes: Stapled synthetic peptide

Kd [12]: 70 nM
N (stoichiometry) [12]: 1.05
ΔH [12]: -8.57 kcal/mol
ΔS [12]: 2.65 cal/mol/deg
N (stoichiometry) [13]: 1.16
ΔH [13]: 3.78 kcal/mol
ΔS [13]: 33.4 cal/mol/deg
B8: yUbc12^1-24 peptide (free N-terminus) (peptide)
peptide: H-MLKLRQLQKKKQKENENSSSIQPN-NH2
notes: Synthetic peptide, N-terminal extension of yeast Ubc12

ΔH [9]: 1.72 kcal/mol
ΔS [9]: 24.1 cal/mol/deg
Kd [10]: 390 nM
N (stoichiometry) [10]: 1.04
ΔH [10]: -8.9 kcal/mol
ΔS [10]: -1.24 cal/mol/deg
B9: Acetyl-hUbc12^2-26 peptide (peptide)
peptide: Ac-IKLFSLKQQKKEEESAGGTKGSSKK-NH2
notes: Synthetic peptide lacking Met1; also called hUbc12^Ac-2-26

From patent publication US20140179593A1 (published 2014)
